Reference: publication PMC9224512, “New Insights into the Determinants of Specificity in Human Type I Arginase: Generation of a Mutant That Is Only Active with Agmatine as Substrate” (International Journal of Molecular Sciences, 2022)
Substitutions are numbered along the chain they refer to. In names and notes the source's numbering stands.

How the values were obtained:
[1] = substrate: N=C(N)NCCCCN; test: Kinetic and inhibition studies, S137C-N139D mutant; format: biochemical, human; conditions: other: substrate = labelled compound, pH 9.5, 2 mM Mn2+
Procedure: (§1) All assays were initiated by adding the enzyme to a previously equilibrated buffer with the substrate in solution (the concentrations of used substrates were between 0.2–3 fold the Km). Urea was determined by a colorimetric method with α-isonitrosopropiophenone [38]. […] Initial velocity and enzymatic inhibition experiments were performed in duplicate and repeated three times. The inhibitory patterns were initially determined by double reciprocal plots and re-plots of intercepts and slopes versus inhibitor concentrations. […] Velocities are expressed as μmol of urea/10 min.

[2] = substrate: N=C(N)NCCCCN; test: Kinetic and inhibition studies, triple mutant; format: biochemical, human; conditions: other: substrate = labelled compound, pH 9.5, 2 mM Mn2+
Procedure: as §1

[3] = substrate: N=C(N)NCCCCN; test: Kinetic studies, E. coli agmatinase; format: biochemical; conditions: other: substrate = labelled compound; n/a = no activity with the substrate; pH 9.5
Procedure: All assays were initiated by adding the enzyme to a previously equilibrated buffer with the substrate in solution (the concentrations of used substrates were between 0.2–3 fold the Km). Urea was determined by a colorimetric method with α-isonitrosopropiophenone. The protein concentrations were determined by the Bradford’s method, with bovine serum albumin as standard. Initial velocity and enzymatic inhibition experiments were performed in duplicate and repeated three times. The inhibitory patterns were initially determined by double reciprocal plots and re-plots of intercepts and slopes versus inhibitor concentrations. […] Velocities are expressed as μmol of urea/10 min.

[4] = substrate: N=C(N)NCCCCN; test: Kinetic and inhibition studies, N130D mutant; format: biochemical, human; conditions: other: substrate = labelled compound, pH 9.5, 2 mM Mn2+
Procedure: (§2) Bacterial cultures were grown with shaking at 37 °C in Luria Broth media, in the presence of ampicillin (100 μg/mL). The wild-type and mutant human liver arginase cDNAs were directionally cloned into the pBluescript II KS(+) expression vector and then expressed in E. coli JM109, following induction with 1 mM isopropyl β-D-thiogalactopyranoside. The bacterial cells were disrupted by sonication on ice (5 × 30 s pulses), centrifuged for 20 min at 12,000× g, and the obtained supernatant was precipitated with ammonium sulfate (60% saturation). The pellet, collected by centrifugation at 12,000× g for 10 min, was re-suspended in buffer 5 mM Tris–HCl (pH 7.5) containing 2 mM MnCl2 and dialyzed for 6 h at 4 °C against the same buffer. After incubation with 5 mM MnCl2 for 10 min at 60 °C, the enzyme variants were purified as previously described [17]. The purity of the enzymes was evaluated by SDS–PAGE stained by Coomassie blue and immunodetection using an anti- rat arginase I antibody.
(§3) The single, double, triple, and chimera variants of human arginase type I were obtained by PCR, using the QuickChange site-directed mutagenesis kit (Stratagene, La Jolla, CA, USA); the plasmid pBluescript II KS(+) containing the human liver arginase cDNA was used as template. To obtain the chimeric species of human arginase type I, serial mutations were made in each loop to be modified, using as template DNA the wild-type arginase gene or the previous done mutation, subcloned in the plasmid pBluescript II KS (+).
(§4) All assays were initiated by adding the enzyme to a previously equilibrated buffer with the substrate in solution (the concentrations of used substrates were between 0.2–3 fold the Km). Urea was determined by a colorimetric method with α-isonitrosopropiophenone [38]. The protein concentrations were determined by the Bradford’s method, with bovine serum albumin as standard. Initial velocity and enzymatic inhibition experiments were performed in duplicate and repeated three times. […]

[5] = substrate: N=C(N)NCCCCN; test: Kinetic and inhibition studies, S137C mutant; format: biochemical, human; conditions: other: substrate = labelled compound, pH 9.5, 2 mM Mn2+
Procedure: as §2, §3, §4

[6] = substrate: N=C(N)NCCCCN; test: Kinetic and inhibition studies, N139D mutant; format: biochemical, human; conditions: other: substrate = labelled compound, pH 9.5, 2 mM Mn2+
Procedure: as §2, §3, §4

[7] = substrate: N=C(N)NCCCCN; test: Kinetic and inhibition studies, N130D-S137C mutant; format: biochemical, human; conditions: other: substrate = labelled compound, pH 9.5, 2 mM Mn2+
Procedure: as §2, §3, §4

[8] = substrate: N=C(N)NCCCCN; test: Kinetic and inhibition studies, N130D-N139D mutant; format: biochemical, human; conditions: other: substrate = labelled compound, pH 9.5, 2 mM Mn2+
Procedure: as §1

[9] = substrate: N=C(N)NCCCCN; test: Kinetic and inhibition studies, Chimera A2; format: biochemical, human; conditions: other: substrate = labelled compound, pH 9.5, 2 mM Mn2+
Procedure: as §2, §3, §4

B1: human arginase type I S137C-N139D (Homo sapiens; N139D/S137C) (protein)
chain: MSAKSRTIGIIGAPFSKGQPRGGVEEGPTVLRKAGLLEKLKEQECDVKDYGDLPFADIPNDSPFQIVKNPRSVGKASEQLAGKVAEVKKNGRISLVLGGDHSLAIGSISGHARVHPDLGVIWVDAHTDINTPLTTTCGDLHGQPVSFLLKELKGKIPDVPGFSWVTPCISAKDIVYIGLRDVDPGEHYILKTLGIKYFSMTEVDRLGIGKVMEETLSYLLGRKKRPIHLSFDVDGLDPSFTPATGTPVVGGLTYREGLYITEEIYKTGLLSGLDIMEVNPSLGKTPEEVTRTVNTAVAITLACFGLAREGNHKPIDYLNPPK
notes: made in house; host or cells: E. coli JM109
[1]
  Km: 900 µM
  kcat: 1.1 s⁻¹
  kcat/Km: 1200 M⁻¹ s⁻¹

B2: human arginase type I N130D-S137C-N139D (Homo sapiens; N130D/N139D/S137C) (protein)
chain: B1 chain with N130D
notes: as for B1
[2]
  Km: 1600 µM
  kcat: 0.9 s⁻¹
  kcat/Km: 560 M⁻¹ s⁻¹

B3: E. coli agmatinase (Escherichia coli K-12) (protein)
chain: MSTLGHQYDNSLVSNAFGFLRLPMNFQPYDSDADWVITGVPFDMATSGRAGGRHGPAAIRQVSTNLAWEHNRFPWNFDMRERLNVVDCGDLVYAFGDAREMSEKLQAHAEKLLAAGKRMLSFGGDHFVTLPLLRAHAKHFGKMALVHFDAHTDTYANGCEFDHGTMFYTAPKEGLIDPNHSVQIGIRTEFDKDNGFTVLDACQVNDRSVDDVIAQVKQIVGDMPVYLTFDIDCLDPAFAPGTGTPVIGGLTSDRAIKLVRGLKDLNIVGMDVVEVAPAYDQSEITALAAATLALEMLYIQAAKKGE
[3]
  Km: 1100 µM
  kcat: 120 s⁻¹
  kcat/Km: 110000 M⁻¹ s⁻¹

B4: human arginase type I N130D (Homo sapiens; N130D) (protein)
chain: B1 chain with N130D, C137S, D139N
notes: as for B1
[4]
  Km: 1400 µM
  kcat: 3 s⁻¹
  kcat/Km: 2100 M⁻¹ s⁻¹

B5: human arginase type I S137C (Homo sapiens; S137C) (protein)
chain: B1 chain with D139N
notes: as for B1
[5]
  Km: 7500 µM
  kcat: 1.8 s⁻¹
  kcat/Km: 240 M⁻¹ s⁻¹

B6: human arginase type I N139D (Homo sapiens; N139D) (protein)
chain: B1 chain with C137S
notes: as for B1
[6]
  Km: 5300 µM
  kcat: 1.3 s⁻¹
  kcat/Km: 250 M⁻¹ s⁻¹

B7: human arginase type I N130D-S137C (Homo sapiens; N130D/S137C) (protein)
chain: B1 chain with N130D, D139N
notes: as for B1
[7]
  Km: 1700 µM
  kcat: 2.3 s⁻¹
  kcat/Km: 1300 M⁻¹ s⁻¹

B8: human arginase type I N130D-N139D (Homo sapiens; N130D/N139D) (protein)
chain: B1 chain with N130D, C137S
notes: as for B1
[8]
  Km: 1100 µM
  kcat: 1.6 s⁻¹
  kcat/Km: 1400 M⁻¹ s⁻¹

B9: Chimera A2 (I129T/N130Y/T131A+∆ P132-T134) of human arginase type I (Homo sapiens; DEL129-131/I129T/L133Y/N130Y/P132T/T134A) (protein)
chain: MSAKSRTIGIIGAPFSKGQPRGGVEEGPTVLRKAGLLEKLKEQECDVKDYGDLPFADIPNDSPFQIVKNPRSVGKASEQLAGKVAEVKKNGRISLVLGGDHSLAIGSISGHARVHPDLGVIWVDAHTDTYATTSGNLHGQPVSFLLKELKGKIPDVPGFSWVTPCISAKDIVYIGLRDVDPGEHYILKTLGIKYFSMTEVDRLGIGKVMEETLSYLLGRKKRPIHLSFDVDGLDPSFTPATGTPVVGGLTYREGLYITEEIYKTGLLSGLDIMEVNPSLGKTPEEVTRTVNTAVAITLACFGLAREGNHKPIDYLNPPK
notes: as for B1
[9]
  Km: 6000 ± 1000 µM
  kcat: 1.1 ± 0.2 s⁻¹
  kcat/Km: 180 M⁻¹ s⁻¹
